# In US6051396:
# Columns and labels:
# [1] = target: T1, trpE-RB19-22 fusion (Homo sapiens) (UniProt P06400); conditions: Southwestern blot; stated as RB19-27 having 20-fold higher affinity; 50 mM NaCl, pH 7.0, room temperature
# T1 sequence: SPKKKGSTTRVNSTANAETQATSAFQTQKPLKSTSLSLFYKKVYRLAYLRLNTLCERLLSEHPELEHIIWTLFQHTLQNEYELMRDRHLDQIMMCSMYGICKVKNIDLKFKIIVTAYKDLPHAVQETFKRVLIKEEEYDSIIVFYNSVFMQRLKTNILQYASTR
# [2] = target: T2, trpE-RB19-27 fusion (Homo sapiens) (UniProt P06400); conditions: Southwestern blot; 20-fold higher affinity than either subregion; 50 mM NaCl, pH 7.0, room temperature
# T2 sequence: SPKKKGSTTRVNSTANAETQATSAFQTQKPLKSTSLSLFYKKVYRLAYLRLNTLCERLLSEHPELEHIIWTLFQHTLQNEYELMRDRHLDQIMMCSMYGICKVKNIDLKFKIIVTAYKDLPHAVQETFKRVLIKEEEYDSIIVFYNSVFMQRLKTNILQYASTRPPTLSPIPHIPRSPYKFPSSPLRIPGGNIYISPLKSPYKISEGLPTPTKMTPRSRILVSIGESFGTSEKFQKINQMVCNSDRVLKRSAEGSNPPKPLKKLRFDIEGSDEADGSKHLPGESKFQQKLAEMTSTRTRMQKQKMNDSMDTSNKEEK
# [3] = target: T3, trpE-RB23-27 fusion (Homo sapiens) (UniProt P06400); conditions: Southwestern blot; stated as RB19-27 having 20-fold higher affinity; 50 mM NaCl, pH 7.0, room temperature
# T3 sequence: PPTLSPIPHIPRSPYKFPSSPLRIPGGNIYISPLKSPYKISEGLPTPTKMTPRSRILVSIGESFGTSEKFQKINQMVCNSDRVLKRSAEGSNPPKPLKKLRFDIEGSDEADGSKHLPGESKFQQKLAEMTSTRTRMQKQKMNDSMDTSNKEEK
substance,measurement,setting,value
"pGEM1 plasmid DNA linearized by EcoRI, random-primed probe",binding signal (fraction of RB19-27),[1],0.05
same,binding signal (fold vs RB19-22 or RB23-27),[2],20
same,binding signal (fraction of RB19-27),[3],0.05
